Data from the supplement of paper PMC9112550, “Optimization of the antimicrobial peptide Bac7 by deep mutational scanning” (BMC Biology, 2022).

system: Escherichia coli TOP10; test: shrunken log2 fold change of peptide-encoding DNA abundance (4.5 h post-induction vs induction); higher = less antimicrobial activity (less host growth inhibition); conditions: time post-induction: 4.5 h; library: site-saturation at positions 5, 18, 19, 20
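Note: peptides expressed intracellularly from a pBAD plasmid library in pooled LB shake-flask culture, induced with 0.3% L-arabinose, DNA abundance read by NGS, three biological replicates, DESeq2 with apeglm shrinkage.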

| Sequence | shrunken log2 fold change |
| --- | --- |
| RRIRTRPPRLPRPRPRPITCPRP | -0.223 |
| RRIRQRPPRLPRPRPRPQWVPRP | 0.0126 |
| RRIRRRPPRLPRPRPRPCDKPRP | -0.00163 |
| RRIRFRPPRLPRPRPRPMVVPRP | -0.0152 |
| RRIRWRPPRLPRPRPRPSKVPRP | -0.04 |
| RRIRYRPPRLPRPRPRPTHAPRP | -0.0504 |
| RRIRPRPPRLPRPRPRPMHVPRP | 0.038 |
| RRIRYRPPRLPRPRPRPLASPRP | -0.556 |
| RRIRVRPPRLPRPRPRPWSIPRP | -0.0192 |
| RRIRFRPPRLPRPRPRPRMLPRP | 3.84e-05 |
| RRIRFRPPRLPRPRPRPGNQPRP | -0.00933 |
| RRIRDRPPRLPRPRPRPGSTPRP | 0.637 |
| RRIRHRPPRLPRPRPRPPAEPRP | 0.0536 |
| RRIRRRPPRLPRPRPRPHSCPRP | 0.0404 |
| RRIRMRPPRLPRPRPRPLHKPRP | 0.301 |
| RRIRLRPPRLPRPRPRPRQVPRP | -0.0496 |
| RRIRHRPPRLPRPRPRPIPGPRP | -0.158 |
| RRIRTRPPRLPRPRPRPGLRPRP | 0.598 |
| RRIRNRPPRLPRPRPRPVINPRP | -0.512 |
| RRIRLRPPRLPRPRPRPFAQPRP | 0.18 |
| RRIRWRPPRLPRPRPRPCYAPRP | -0.345 |
| RRIRPRPPRLPRPRPRPTDAPRP | 0.12 |
| RRIRLRPPRLPRPRPRPHSDPRP | -0.175 |
| RRIRDRPPRLPRPRPRPEMNPRP | 0.128 |
| RRIRVRPPRLPRPRPRPSEKPRP | 0.268 |

| Sequence | shrunken log2 fold change |
| --- | --- |
| RRIRARPPRLPRPRPRPCQQPRP | -0.00897 |
| RRIRTRPPRLPRPRPRPSNMPRP | -0.851 |
| RRIRFRPPRLPRPRPRPPYSPRP | -0.235 |
| RRIRNRPPRLPRPRPRPNMEPRP | -0.0369 |
| RRIRDRPPRLPRPRPRPVTIPRP | -0.0184 |
| RRIRIRPPRLPRPRPRPLTDPRP | -0.201 |
| RRIRTRPPRLPRPRPRPGFHPRP | -0.19 |
| RRIRYRPPRLPRPRPRPMIQPRP | -0.0921 |
| RRIRRRPPRLPRPRPRPNHQPRP | -0.0677 |
| RRIRRRPPRLPRPRPRPRCVPRP | 0.402 |
| RRIRQRPPRLPRPRPRPQQDPRP | 0.206 |
| RRIRIRPPRLPRPRPRPVEPPRP | -0.115 |
| RRIRCRPPRLPRPRPRPRGTPRP | 0.0528 |
| RRIRYRPPRLPRPRPRPVSLPRP | -0.267 |
| RRIRVRPPRLPRPRPRPDFCPRP | 0.183 |
| RRIRLRPPRLPRPRPRPNHHPRP | -0.0905 |
| RRIRERPPRLPRPRPRPGQRPRP | -0.0192 |
| RRIRPRPPRLPRPRPRPCMEPRP | -0.106 |
| RRIRARPPRLPRPRPRPNEMPRP | -0.0653 |
| RRIRDRPPRLPRPRPRPMPQPRP | 0.0354 |
| RRIRHRPPRLPRPRPRPLNYPRP | -0.289 |
| RRIRSRPPRLPRPRPRPKNQPRP | -0.177 |
| RRIRKRPPRLPRPRPRPDFNPRP | 0.0068 |
| RRIRSRPPRLPRPRPRPNIVPRP | 0.238 |
| RRIRKRPPRLPRPRPRPQCLPRP | 0.131 |

| Sequence | shrunken log2 fold change |
| --- | --- |
| RRIRPRPPRLPRPRPRPCIPPRP | -0.556 |
| RRIRQRPPRLPRPRPRPPDLPRP | 0.404 |
| RRIRSRPPRLPRPRPRPIIIPRP | -0.159 |
| RRIRCRPPRLPRPRPRPMKYPRP | -0.82 |
| RRIRDRPPRLPRPRPRPTWIPRP | -0.0164 |
| RRIRVRPPRLPRPRPRPHVDPRP | 0.0108 |
| RRIRRRPPRLPRPRPRPPSPPRP | 0.875 |
| RRIRVRPPRLPRPRPRPNYGPRP | -0.387 |
| RRIRGRPPRLPRPRPRPVCNPRP | 0.636 |
| RRIRKRPPRLPRPRPRPKLGPRP | 0.0679 |
| RRIRPRPPRLPRPRPRPRHCPRP | 0.115 |
| RRIRWRPPRLPRPRPRPKNMPRP | -0.189 |
| RRIRIRPPRLPRPRPRPWEGPRP | -0.152 |
| RRIRHRPPRLPRPRPRPWKGPRP | -0.0165 |
| RRIRWRPPRLPRPRPRPYLQPRP | -0.113 |
| RRIRCRPPRLPRPRPRPSQCPRP | -0.548 |
| RRIRERPPRLPRPRPRPLVPPRP | -0.182 |
| RRIRNRPPRLPRPRPRPALGPRP | -0.361 |
| RRIRERPPRLPRPRPRPANCPRP | -0.65 |
| RRIRWRPPRLPRPRPRPEDSPRP | 0.769 |
| RRIRERPPRLPRPRPRPDCIPRP | 0.0113 |
| RRIRWRPPRLPRPRPRPHIVPRP | -0.102 |
| RRIRNRPPRLPRPRPRPEKEPRP | -0.159 |
| RRIRMRPPRLPRPRPRPFRPPRP | -0.16 |
| RRIRIRPPRLPRPRPRPLVCPRP | -0.346 |

| Sequence | shrunken log2 fold change |
| --- | --- |
| RRIRGRPPRLPRPRPRPRPSPRP | 0.49 |
| RRIRSRPPRLPRPRPRPTNKPRP | -0.328 |
| RRIRCRPPRLPRPRPRPGFRPRP | 0.498 |
| RRIRFRPPRLPRPRPRPNFCPRP | 0.0651 |
| RRIRCRPPRLPRPRPRPIKMPRP | -0.185 |
| RRIRFRPPRLPRPRPRPVYFPRP | -0.399 |
| RRIRMRPPRLPRPRPRPIGDPRP | 0.0215 |
| RRIRTRPPRLPRPRPRPYVPPRP | -0.1 |
| RRIRVRPPRLPRPRPRPNKIPRP | -0.295 |
| RRIRARPPRLPRPRPRPMHKPRP | 0.221 |
| RRIRGRPPRLPRPRPRPFYVPRP | 0.0462 |
| RRIRLRPPRLPRPRPRPIFVPRP | -0.0836 |
| RRIRARPPRLPRPRPRPCAPPRP | 0.384 |
| RRIRIRPPRLPRPRPRPCFIPRP | -0.503 |
| RRIRNRPPRLPRPRPRPWGEPRP | 0.157 |
| RRIRGRPPRLPRPRPRPQVKPRP | 0.564 |
| RRIRMRPPRLPRPRPRPAWWPRP | 0.879 |
| RRIRLRPPRLPRPRPRPIHMPRP | -0.0933 |
| RRIRMRPPRLPRPRPRPLAIPRP | 0.173 |
| RRIRPRPPRLPRPRPRPKMPPRP | -0.0926 |
| RRIRKRPPRLPRPRPRPTERPRP | 0.306 |
| RRIRKRPPRLPRPRPRPGIDPRP | 0.792 |
| RRIRDRPPRLPRPRPRPETEPRP | -0.0111 |
| RRIRNRPPRLPRPRPRPHSTPRP | -0.412 |
| RRIRERPPRLPRPRPRPWQVPRP | 0.0371 |

| Sequence | shrunken log2 fold change |
| --- | --- |
| RRIRIRPPRLPRPRPRPYNMPRP | -1.39 |
| RRIRPRPPRLPRPRPRPRWFPRP | 0.405 |
| RRIRARPPRLPRPRPRPQIIPRP | 0.0561 |
| RRIRMRPPRLPRPRPRPNMIPRP | -0.489 |
| RRIRSRPPRLPRPRPRPCCWPRP | -0.0914 |
| RRIRTRPPRLPRPRPRPIENPRP | 0.0452 |
| RRIRIRPPRLPRPRPRPAPLPRP | 0.276 |
| RRIRNRPPRLPRPRPRPDKLPRP | -0.168 |
| RRIRKRPPRLPRPRPRPHGTPRP | -0.0973 |
| RRIRARPPRLPRPRPRPKQHPRP | 0.312 |
| RRIRGRPPRLPRPRPRPEQQPRP | -0.0199 |
| RRIRVRPPRLPRPRPRPLDVPRP | -0.277 |
| RRIRKRPPRLPRPRPRPDLIPRP | -0.275 |
| RRIRVRPPRLPRPRPRPCTMPRP | -0.193 |
| RRIRCRPPRLPRPRPRPVSGPRP | 0.357 |
| RRIRERPPRLPRPRPRPCIWPRP | -0.0915 |
| RRIRTRPPRLPRPRPRPYHPPRP | -0.304 |
| RRIRGRPPRLPRPRPRPECCPRP | 1.52 |
| RRIRNRPPRLPRPRPRPRNAPRP | 0.0122 |
| RRIRIRPPRLPRPRPRPEWRPRP | 0.257 |
| RRIRLRPPRLPRPRPRPHRNPRP | -0.319 |
| RRIRERPPRLPRPRPRPECWPRP | 0.447 |
| RRIRRRPPRLPRPRPRPFKWPRP | -0.157 |
| RRIRFRPPRLPRPRPRPSNPPRP | -0.674 |
| RRIRWRPPRLPRPRPRPPYPPRP | 0.0905 |

| Sequence | shrunken log2 fold change |
| --- | --- |
| RRIRWRPPRLPRPRPRPWHPPRP | 0.0551 |
| RRIRCRPPRLPRPRPRPQEEPRP | -0.0124 |
| RRIRRRPPRLPRPRPRPIFRPRP | 0.584 |
| RRIRLRPPRLPRPRPRPQMRPRP | 0.64 |
| RRIRFRPPRLPRPRPRPAFKPRP | -0.347 |
| RRIRGRPPRLPRPRPRPWFPPRP | -0.132 |
| RRIRQRPPRLPRPRPRPWRDPRP | 0.19 |
| RRIRMRPPRLPRPRPRPSKGPRP | -0.071 |
| RRIRYRPPRLPRPRPRPVLTPRP | -0.0151 |
| RRIRERPPRLPRPRPRPPADPRP | 0.152 |
| RRIRHRPPRLPRPRPRPALKPRP | -0.322 |
| RRIRWRPPRLPRPRPRPTVKPRP | -0.0974 |
| RRIRIRPPRLPRPRPRPAQIPRP | 0.0984 |
| RRIRWRPPRLPRPRPRPTKGPRP | 0.469 |
| RRIRPRPPRLPRPRPRPVNIPRP | -0.226 |
| RRIRFRPPRLPRPRPRPHANPRP | -0.16 |
| RRIRTRPPRLPRPRPRPLFNPRP | -0.692 |
| RRIRNRPPRLPRPRPRPFATPRP | -0.101 |
| RRIRYRPPRLPRPRPRPFNGPRP | -0.0276 |
| RRIRCRPPRLPRPRPRPCWHPRP | -0.169 |
| RRIRSRPPRLPRPRPRPEFYPRP | -0.131 |
| RRIRNRPPRLPRPRPRPFYRPRP | -0.131 |
| RRIRGRPPRLPRPRPRPEINPRP | 0.797 |
| RRIRVRPPRLPRPRPRPSFKPRP | -0.202 |
| RRIRHRPPRLPRPRPRPWDWPRP | -0.00132 |
